Source: article PMC11446282

B1: AMOL2_HUMAN (protein, UniProt Q9Y2J4 1-779, looked up)
Angiomotin-like protein 2: MRTLEDSSGTVLHRLIQEQLRYGNLTETRTLLAIQQQALRGGAGTGGTGSPQASLEILAPEDSQVLQQATRQEPQGQEHQGGENHLAENTLYRLCPQPSKGEELPTYEEAKAHSQYYAAQQAGTRPHAGDRDPRGAPGGSRRQDEALRELRHGHVRSLSERLLQLSLERNGARAPSHMSSSHSFPQLARNQQGPPLRGPPAEGPESRGPPPQYPHVVLAHETTTAVTDPRYRARGSPHFQHAEVRILQAQVPPVFLQQQQQYQYLQQSQEHPPPPHPAALGHGPLSSLSPPAVEGPVSAQASSATSGSAHLAQMEAVLRENARLQRDNERLQRELESSAEKAGRIEKLESEIQRLSEAHESLTRASSKREALEKTMRNKMDSEMRRLQDFNRDLRERLESANRRLASKTQEAQAGSQDMVAKLLAQSYEQQQEQEKLEREMALLRGAIEDQRRRAELLEQALGNAQGRAARAEEELRKKQAYVEKVERLQQALGQLQAACEKREQLELRLRTRLEQELKALRAQQRQAGAPGGSSGSGGSPELSALRLSEQLREKEEQILALEADMTKWEQKYLEERAMRQFAMDAAATAAAQRDTTLIRHSPQPSPSSSFNEGLLTGGHRHQEMESRLKVLHAQILEKDAVIKVLQQRSRRDPGKAIQGSLRPAKSVPSVFAAAAAGTQGWQGLSSSERQTADAPARLTTDRAPTEEPVVTAPPAAHAKHGSRDGSTQTEGPPDSTSTCLPPEPDSLLGCSSSQRAASLDSVATSRVQDLSDMVEILI
B2: TBCD4_HUMAN (protein, UniProt O60343 1-1298, looked up)
TBC1 domain family member 4: MEPPSCIQDEPFPHPLEPEPGVSAQPGPGKPSDKRFRLWYVGGSCLDHRTTLPMLPWLMAEIRRRSQKPEAGGCGAPAAREVILVLSAPFLRCVPAPGAGASGGTSPSATQPNPAVFIFEHKAQHISRFIHNSHDLTYFAYLIKAQPDDPESQMACHVFRATDPSQVPDVISSIRQLSKAAMKEDAKPSKDNEDAFYNSQKFEVLYCGKVTVTHKKAPSSLIDDCMEKFSLHEQQRLKIQGEQRGPDPGEDLADLEVVVPGSPGDCLPEEADGTDTHLGLPAGASQPALTSSRVCFPERILEDSGFDEQQEFRSRCSSVTGVQRRVHEGSQKSQPRRRHASAPSHVQPSDSEKNRTMLFQVGRFEINLISPDTKSVVLEKNFKDISSCSQGIKHVDHFGFICRESPEPGLSQYICYVFQCASESLVDEVMLTLKQAFSTAAALQSAKTQIKLCEACPMHSLHKLCERIEGLYPPRAKLVIQRHLSSLTDNEQADIFERVQKMKPVSDQEENELVILHLRQLCEAKQKTHVHIGEGPSTISNSTIPENATSSGRFKLDILKNKAKRSLTSSLENIFSRGANRMRGRLGSVDSFERSNSLASEKDYSPGDSPPGTPPASPPSSAWQTFPEEDSDSPQFRRRAHTFSHPPSSTKRKLNLQDGRAQGVRSPLLRQSSSEQCSNLSSVRRMYKESNSSSSLPSLHTSFSAPSFTAPSFLKSFYQNSGRLSPQYENEIRQDTASESSDGEGRKRTSSTCSNESLSVGGTSVTPRRISWRQRIFLRVASPMNKSPSAMQQQDGLDRNELLPLSPLSPTMEEEPLVVFLSGEDDPEKIEERKKSKELRSLWRKAIHQQILLLRMEKENQKLEASRDELQSRKVKLDYEEVGACQKEVLITWDKKLLNCRAKIRCDMEDIHTLLKEGVPKSRRGEIWQFLALQYRLRHRLPNKQQPPDISYKELLKQLTAQQHAILVDLGRTFPTHPYFSVQLGPGQLSLFNLLKAYSLLDKEVGYCQGISFVAGVLLLHMSEEQAFEMLKFLMYDLGFRKQYRPDMMSLQIQMYQLSRLLHDYHRDLYNHLEENEISPSLYAAPWFLTLFASQFSLGFVARVFDIIFLQGTEVIFKVALSLLSSQETLIMECESFENIVEFLKNTLPDMNTSEMEKIITQVFEMDISKQLHAYEVEYHVLQDELQESSYSCEDSETLEKLERANSQLKRQNMDLLEKLQVAHTKIQALESNLENLLTRETKMKSLIRTLEQEKMAYQKTVEQLRKLLPADALVNCDLLLRDLNCNPNNKAKIGNKP
B3: OFD1_HUMAN (protein, UniProt O75665 1-1012, looked up)
Centriole and centriolar …: MMAQSNMFTVADVLSQDELRKKLYQTFKDRGILDTLKTQLRNQLIHELMHPVLSGELQPRSISVEGSSLLIGASNSLVADHLQRCGYEYSLSVFFPESGLAKEKVFTMQDLLQLIKINPTSSLYKSLVSGSDKENQKGFLMHFLKELAEYHQAKESCNMETQTSSTFNRDSLAEKLQLIDDQFADAYPQRIKFESLEIKLNEYKREIEEQLRAEMCQKLKFFKDTEIAKIKMEAKKKYEKELTMFQNDFEKACQAKSEALVLREKSTLERIHKHQEIETKEIYAQRQLLLKDMDLLRGREAELKQRVEAFELNQKLQEEKHKSITEALRRQEQNIKSFEETYDRKLKNELLKYQLELKDDYIIRTNRLIEDERKNKEKAVHLQEELIAINSKKEELNQSVNRVKELELELESVKAQSLAITKQNHMLNEKVKEMSDYSLLKEEKLELLAQNKLLKQQLEESRNENLRLLNRLAQPAPELAVFQKELRKAEKAIVVEHEEFESCRQALHKQLQDEIEHSAQLKAQILGYKASVKSLTTQVADLKLQLKQTQTALENEVYCNPKQSVIDRSVNGLINGNVVPCNGEISGDFLNNPFKQENVLARMVASRITNYPTAWVEGSSPDSDLEFVANTKARVKELQQEAERLEKAFRSYHRRVIKNSAKSPLAAKSPPSLHLLEAFKNITSSSPERHIFGEDRVVSEQPQVGTLEERNDVVEALTGSAASRLRGGTSSRRLSSTPLPKAKRSLESEMYLEGLGRSHIASPSPCPDRMPLPSPTESRHSLSIPPVSSPPEQKVGLYRRQTELQDKSEFSDVDKLAFKDNEEFESSFESAGNMPRQLEMGGLSPAGDMSHVDAAAAAVPLSYQHPSVDQKQIEEQKEEEKIREQQVKERRQREERRQSNLQEVLERERRELEKLYQERKMIEESLKIKIKKELEMENELEMSNQEIKDKSAHSENPLEKYMKIIQQEQDQESADKSSKKMVQEGSLVDTLQSSDKVESLTGFSHEELDDSW
B4: PPME1_HUMAN (protein, UniProt Q9Y570 2-386, looked up)
Protein phosphatase …: SALEKSMHLGRLPSRPPLPGSGGSQSGAKMRMGPGRKRDFSPVPWSQYFESMEDVEVENETGKDTFRVYKSGSEGPVLLLLHGGGHSALSWAVFTAAIISRVQCRIVALDLRSHGETKVKNPEDLSAETMAKDVGNVVEAMYGDLPPPIMLIGHSMGGAIAVHTASSNLVPSLLGLCMIDVVEGTAMDALNSMQNFLRGRPKTFKSLENAIEWSVKSGQIRNLESARVSMVGQVKQCEGITSPEGSKSIVEGIIEEEEEDEEGSESISKRKKEDDMETKKDHPYTWRIELAKTEKYWDGWFRGLSNLFLSCPIPKLLLLAGVDRLDKDLTIGQMQGKFQMQVLPQCGHAVHEDAPDKVAEAVATFLIRHRFAEPIGGFQCVFPGC
B5: RBM7_HUMAN (protein, UniProt Q9Y580 2-266, looked up)
RNA-binding protein 7: GAAAAEADRTLFVGNLETKVTEELLFELFHQAGPVIKVKIPKDKDGKPKQFAFVNFKHEVSVPYAMNLLNGIKLYGRPIKIQFRSGSSHAPQDVSLSYPQHHVGNSSPTSTSPSRYERTMDNMTSSAQIIQRSFSSPENFQRQAVMNSALRQMSYGGKFGSSPLDQSGFSPSVQSHSHSFNQSSSSQWRQGTPSSQRKVRMNSYPYLADRHYSREQRYTDHGSDHHYRGKRDDFFYEDRNHDDWSHDYDNRRDSSRDGKWRSSRH
B6: ACOT8_HUMAN (protein, UniProt O14734 1-319, looked up)
Acyl-coenzyme A thioesterase 8: MSSPQAPEDGQGCGDRGDPPGDLRSVLVTTVLNLEPLDEDLFRGRHYWVPAKRLFGGQIVGQALVAAAKSVSEDVHVHSLHCYFVRAGDPKLPVLYQVERTRTGSSFSVRSVKAVQHGKPIFICQASFQQAQPSPMQHQFSMPTVPPPEELLDCETLIDQYLRDPNLQKRYPLALNRIAAQEVPIEIKPVNPSPLSQLQRMEPKQMFWVRARGYIGEGDMKMHCCVAAYISDYAFLGTALLPHQWQHKVHFMVSLDHSMWFHAPFRADHWMLYECESPWAGGSRGLVHGRLWRQDGVLAVTCAQEGVIRVKPQVSESKL

What follows are molecules tested on B55α interactors (assay: MS analysis of B55α WT, V228A, I284A, S287A and D340A immunopurifications). Settings: log2 ratio of interactor abundance, B55α D340A vs WT immunopurification, 4 replicates each, normalised to bait B55α.
Type: binding, human
Procedure: Standard cloning techniques were used throughout. Point mutations were introduced by whole plasmid polymerase chain reaction (PCR). All constructs were fully sequenced. Synthetic DNA was purchased from GeneArt, Life Technologies and cloned into pcDNA5/FRT/TO (Invitrogen) expression vector containing YFP, resulting in the indicated YFP fusion proteins. These constructs were transiently transfected into HeLa cells 24 hours before harvesting cells. Cells were lysed in lysis buffer [50 mM tris-HCl (pH 7.5), 50 mM NaCl, 1 mM EDTA, 1 mM […], and 0.1% NP-40]. Complexes were immunoprecipitated at 4°C in lysis buffer with green fluorescent protein (GFP)–Trap (ChromoTek) and washed in lysis buffer. Precipitated protein complexes were washed three times in lysis buffer, eluted in 2× SDS sample buffer, and subjected to Western blotting or MS as indicated.
Pull-downs were analyzed on a Q-Exactive Plus quadrupole or Fusion Orbitrap Lumos mass spectrometer (Thermo Fisher Scientific) equipped with Easy-nLC 1000 or […] (Thermo Fisher Scientific) and nanospray source (Thermo Fisher Scientific).
Static modifications included carbamidomethylcysteine, and variable modifications included oxidized methionine and STY phosphorylation. Searches were filtered using orthogonal measures including mass measurement accuracy (±3 parts per million), Xcorr for charges from +2 to +4, and dCn targeting a <1% false discovery rate at the peptide level. Quantification of LC-MS/MS spectra was performed using MassChroQ ([57]) and the iBAQ method ([58]). All data were analyzed using R 4.3.0. Missing values were imputed from a normal distribution. […] In each dataset, the abundance of the protein of interest was normalized to be equal across all samples. Statistical analyses were done using a two-tailed Student’s t test.

Point of comparison: B1, log2_ratio_D340_WT 2.17. Against it:
- B2 — lower, -3.17
- B3 — within 0.2 log units, 2.04
- B4 — lower, -3.73
- B5 — lower, -4.64
- B6 — lower, -0.23

Same assay, conditions: log2 ratio of interactor abundance, B55α I284A vs WT immunopurification, 4 replicates each, normalised to bait B55α

Point of comparison: B5, “log2_ratio I284_WT” value -3.46. Against it:
- B1 — higher, 3.49
- B2 — higher, -2.61
- B3 — higher, 1.52
- B4 — lower, -7.04

Same assay, conditions: log2 ratio of interactor abundance, B55α S287A vs WT immunopurification, 4 replicates each, normalised to bait B55α

Point of comparison: B5, “log2_ratio S287_WT” value 0.85. Against it:
- B1 — higher, 2.56
- B2 — lower, -1.57
- B3 — within 0.2 log units, 0.73
- B4 — lower, -10.17
- B6 — within 0.2 log units, 0.94

Same assay, conditions: log2 ratio of interactor abundance, B55α V228A vs WT immunopurification, 4 replicates each, normalised to bait B55α

Point of comparison: B4, “log2_ratio V228_WT” value -9.33. Against it:
- B2 — higher, -1.50
- B3 — higher, -2.22
- B5 — higher, -3.26
